In experiment [1] the target is T1, cynoCEA (Cat. CE5-C52H5, Acrobiosystem) (cynomolgus monkey).
T1 construct: Bought protein; also called Monkey CEA
The experiment in a line: SPR, Monkey CEA.

The target of a further experiment is FcγRI (UniProt P12314 16-288, limits assumed). The experiment in a line: ELISA-based FcγR binding, luminescence read-out (RLU). A general note: An ELISA detects its analyte on a solid surface through an enzyme-linked reagent.
The target of the next experiment is T2, FcγRIIAH131 (UniProt P12318 34-218).
T2 sequence (looked up): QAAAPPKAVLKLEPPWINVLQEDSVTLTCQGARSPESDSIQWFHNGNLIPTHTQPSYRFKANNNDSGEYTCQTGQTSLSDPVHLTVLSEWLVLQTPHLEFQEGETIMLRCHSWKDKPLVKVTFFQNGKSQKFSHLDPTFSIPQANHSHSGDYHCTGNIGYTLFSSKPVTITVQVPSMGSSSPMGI
Described as above.

A further experiment addresses T3, FcγRIIAR131 (UniProt P12318 34-218).
T3 sequence (looked up): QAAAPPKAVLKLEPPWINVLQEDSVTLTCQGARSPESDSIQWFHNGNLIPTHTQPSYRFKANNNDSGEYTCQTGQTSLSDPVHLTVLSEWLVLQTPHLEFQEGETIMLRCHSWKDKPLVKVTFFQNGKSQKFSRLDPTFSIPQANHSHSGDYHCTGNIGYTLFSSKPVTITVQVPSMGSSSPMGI
The experiment is described as above.

For another experiment, the target named is T4, FcγRIIB (UniProt P31994 43-217, limits assumed).
T4 sequence (looked up): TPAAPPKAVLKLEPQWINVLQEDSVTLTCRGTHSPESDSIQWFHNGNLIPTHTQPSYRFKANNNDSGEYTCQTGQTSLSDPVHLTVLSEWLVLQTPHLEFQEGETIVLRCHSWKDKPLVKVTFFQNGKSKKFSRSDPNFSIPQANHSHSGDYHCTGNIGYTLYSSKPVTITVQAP
The description is as above.

Another experiment concerns the target FcγRIIIAV158 (UniProt P08637 17-208). The description is as above.
A further experiment has as its target FcγRIIIAF158 (UniProt P08637 17-208). Described as above.
In a further experiment the target is FcγRIIIB (UniProt O75015 17-200, limits assumed). Described as above.
Sequence of FcγRIIIB (O75015 17-200 limits assumed): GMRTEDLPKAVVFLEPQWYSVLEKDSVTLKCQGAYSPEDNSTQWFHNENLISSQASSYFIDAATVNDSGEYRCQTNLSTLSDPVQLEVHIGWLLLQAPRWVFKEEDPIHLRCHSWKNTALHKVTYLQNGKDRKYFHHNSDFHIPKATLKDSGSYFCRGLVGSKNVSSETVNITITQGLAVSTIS

Sequence of FcγRIIIAV158 (P08637 17-208 F176V): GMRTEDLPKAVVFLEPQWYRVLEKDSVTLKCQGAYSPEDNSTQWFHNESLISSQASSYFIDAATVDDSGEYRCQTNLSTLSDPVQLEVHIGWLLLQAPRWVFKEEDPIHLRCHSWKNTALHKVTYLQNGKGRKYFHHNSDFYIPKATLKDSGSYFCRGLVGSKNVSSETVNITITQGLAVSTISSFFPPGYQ
Sequence of FcγRI (P12314 16-288 limits assumed): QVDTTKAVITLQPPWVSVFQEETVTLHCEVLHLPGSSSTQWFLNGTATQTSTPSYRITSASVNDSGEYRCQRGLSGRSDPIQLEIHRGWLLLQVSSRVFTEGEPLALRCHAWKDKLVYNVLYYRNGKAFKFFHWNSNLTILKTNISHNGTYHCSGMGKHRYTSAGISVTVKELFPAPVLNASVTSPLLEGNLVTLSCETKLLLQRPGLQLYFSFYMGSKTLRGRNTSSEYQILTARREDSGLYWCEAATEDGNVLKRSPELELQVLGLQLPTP
Sequence of FcγRIIIAF158 (P08637 17-208): as the sequence (P08637 17-208 F176V) above, with V160F counted along it

B1: BE-146 (CEAxCD137 multispecific antibody) (bispecific antibody, human IgG1, kappa)
heavy: QVQLVQSGAEVKKPGASVKVSCKASGYIFTSYYLHWVRQAPGQGLEWIGYINPQTGKTSYAQKFQGRVTMTRDTSTSTVYMELSSLRSEDTAVYYCAREYGNYNYPLDYWGQGTLVTVSSASTKGPSVFPLAPSSKSTSGGTAALGCLVKDYFPEPVTVSWNSGALTSGVHTFPAVLQSSGLYSLSSVVTVPSSSLGTQTYICNVNHKPSNTKVDKKVEPKSCDKTHTCPPCPAPPAAGPSVFLFPPKPKDTLMISRTPEVTCVVVDVSHEDPEVKFNWYVDGVEVHNAKTKPREEQYNSTYRVVSVLTVLHQDWLNGKEYKCKVSNKALAAPIEKTISKAKGQPREPQVYTLPPSREEMTKNQVSLTCLVKGFYPSDIAVEWESNGQPENNYKTTPPVLDSDGSFFLYSKLTVDKSRWQQGNVFSCSVMHEALHNHYTQKSLSLSPGKGGGGSEVQLLESGGGLVQPGGSLRLSCAASGFTVSAEDVGWVRQAPGKGLEWVSAILDKGGSTYYAESVKGRFTISRDNAKNTLYLQMSSLRAEDTAVYYCARIVYHAGGGVTFDTRGQGTQVTVSS
light: DIQMTQSPSSLSASVGDRVTITCRASENQYGYLAWYQQKPGKVPKLLIYNYKNLVEGVPSRFSGSGSGTDFTLTISSLQPEDVATYYCQHHLGTPYTFGQGTKVEIKRTVAAPSVFIFPPSDEQLKSGTASVVCLLNNFYPREAKVQWKVDNALQSGNSQESVTEQDSKDSTYSLSSTLTLSKADYEKHKVYACEVTHQGLSSPVTKSFNRGEC
notes: Module ratio 2:2, Fc null version of huIgG1; copies: 2 + 2
The Kd is a measure of binding affinity in units of concentration. As a reminder, the koff is the first-order rate constant of dissociation. As a reminder, the kon is the second-order rate constant of association. The molecule B1 gave a Kd in experiment [1] of 11.4 nM. In experiment [1], this molecule registered a koff of 0.000717 s⁻¹. Also, in experiment [1], the kon was determined as 63000 M⁻¹ s⁻¹. Further, the binding result in the experiment with FcγRI, with FcγRIIAH131, with FcγRIIAR131, with FcγRIIB, in the experiment with FcγRIIIAV158 and with FcγRIIIAF158 was “no binding (tested: not shown)” each time. In addition, the binding result with FcγRIIIB is on record as “no binding (tested: not shown)”.
